Reference: patent US20230038638A1, “COMPLEMENT FACTOR I-RELATED COMPOSITIONS AND METHODS” (published 2023)
Substitutions are numbered along the chain they refer to.

Experiments:
human C4b (human) [1] = biological target: T1, human C4b (human) (UniProt P0C0L4)
T1 sequence: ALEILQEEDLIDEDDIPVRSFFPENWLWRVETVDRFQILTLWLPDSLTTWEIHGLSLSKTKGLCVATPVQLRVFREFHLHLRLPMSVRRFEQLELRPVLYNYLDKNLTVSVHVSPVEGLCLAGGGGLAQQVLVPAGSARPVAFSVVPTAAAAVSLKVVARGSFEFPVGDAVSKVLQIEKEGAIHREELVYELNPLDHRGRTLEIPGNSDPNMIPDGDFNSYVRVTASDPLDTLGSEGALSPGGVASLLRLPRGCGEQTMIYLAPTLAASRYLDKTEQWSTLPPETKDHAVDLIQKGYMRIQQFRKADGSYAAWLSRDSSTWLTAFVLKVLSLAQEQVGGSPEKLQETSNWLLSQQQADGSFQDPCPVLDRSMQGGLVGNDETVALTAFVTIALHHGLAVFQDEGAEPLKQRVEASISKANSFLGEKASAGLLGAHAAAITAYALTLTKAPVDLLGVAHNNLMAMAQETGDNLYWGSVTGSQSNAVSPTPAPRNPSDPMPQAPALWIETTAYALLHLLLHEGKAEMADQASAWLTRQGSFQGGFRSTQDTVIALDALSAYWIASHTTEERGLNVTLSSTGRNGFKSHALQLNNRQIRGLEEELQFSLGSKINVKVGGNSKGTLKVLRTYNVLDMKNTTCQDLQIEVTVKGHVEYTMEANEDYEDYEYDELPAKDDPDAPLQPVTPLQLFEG

[2] = biological target: soluble human C3b (human) (UniProt P01024)
human C4b (human) [3] = biological target: T2, human C4b (human) (UniProt P0C0L5)
T2 sequence: T1 sequence with A151T, D317G, P364L, C365S, L368I, D369H, N420S, V451A, L454R, S530A

Substance	C4c EC50 (human C4b (human) [1])	iC3b Screen Ref Fold (fold of CFI-HSA wild type) [2]	C4b Screen Ref Fold (fold of CFI-HSA wild type) (human C4b (human) [3])	C4c EC50 (nM) (human C4b (human) [1])	iC3b Screen Ref Fold (fold vs CFI-HSA wild type) [2]	C4b Screen Ref Fold (fold vs CFI-HSA wild type) (human C4b (human) [3])
CFI-HSA variant S552G; Y553H; P558S (enzyme)	139 nM	0.44	2.04			
CFI-HSA variant S552G; Y553H; V565I (enzyme)	207 nM	0.37	2.57			
CFI-HSA variant S552G; Y553H; V565I; P558S (enzyme)	108 nM	0.66	3.5			
CFI-HSA variant Y20F; E38A; S250A; D425A; Y408L; N531G; E457G; E461Q; R462K; F464Y (enzyme)				106 nM	0.77	6.31
CFI-HSA variant Y408F; N531G (enzyme)				75.7 nM	1.24	5.78
CFI-HSA variant Y408L; D425R; E416A (enzyme)		2.26	0.43	221 nM		
CFI-HSA variant Y408L; E457G; D425K (enzyme)	102 nM	1.21	5.47			
CFI-HSA variant Y408L; E457G; D425R; E416A (enzyme)		3.02	2.03	181 nM		
CFI-HSA variant Y408L; E457G; E416A (enzyme)		2.51	2.11	170 nM		
CFI-HSA variant Y408L; E457G; E461Q; R462K (enzyme)				90.2 nM	0.89	3.98
CFI-HSA variant Y408L; E457G; E461Q; R462K; F464Y (enzyme)				163 nM	0.86	5.78
CFI-HSA variant Y408L; E457G; K534Q (enzyme)	83.8 nM	0.97	5.24			
CFI-HSA variant Y408L; E457G; N422K (enzyme)	43.6 nM	1.87	3.1			
CFI-HSA variant Y408L; E457G; N531G; E416A (enzyme)		2.15	4.66	34.8 nM		
CFI-HSA variant Y408L; E457G; N531G; K534Q (enzyme)	26.4 nM	0.54	5.16			
CFI-HSA variant Y408L; E457G; N531G; N422K (enzyme)	48.4 nM	0.95	3.66			
CFI-HSA variant Y408L; E457G; N531G; P535G (enzyme)	50.5 nM	1.06	5.28			
CFI-HSA variant Y408L; E457G; N531G; P535G; D425K (enzyme)	32.2 nM	1.12	5.01			

Substance	C4c EC50 (human C4b (human) [1])	iC3b Screen Ref Fold (fold of CFI-HSA wild type) [2]	C4b Screen Ref Fold (fold of CFI-HSA wild type) (human C4b (human) [3])	C4c EC50 (nM) (human C4b (human) [1])	iC3b Screen Ref Fold (fold vs CFI-HSA wild type) [2]	C4b Screen Ref Fold (fold vs CFI-HSA wild type) (human C4b (human) [3])
CFI-HSA variant Y408L; E457G; N531G; P535G; K534Q (enzyme)	21.1 nM	1.2	4.68			
CFI-HSA variant Y408L; E457G; N531G; P535G; N422K (enzyme)	59.7 nM	1.77	3.64			
CFI-HSA variant Y408L; E457G; N531G; P558S (enzyme)	26.6 nM	0.86	5.27			
CFI-HSA variant Y408L; E457G; P558S (enzyme)	67.3 nM	0.97	4.59			
CFI-HSA variant Y408L; N531G; D425K (enzyme)	50.1 nM	1.43	4.99			
CFI-HSA variant Y408L; N531G; D425R; E416A (enzyme)		2.15	1.41	60.6 nM		
CFI-HSA variant Y408L; N531G; E457G (enzyme)				94.4 nM	0.63	6.16
CFI-HSA variant Y408L; N531G; E457G; E461Q (enzyme)				84.8 nM	0.39	4.63
CFI-HSA variant Y408L; N531G; E457G; E461Q; F464Y (enzyme)				79.9 nM	0.51	6.12
CFI-HSA variant Y408L; N531G; E457G; E461Q; R462K (enzyme)				60 nM	0.64	6.07
CFI-HSA variant Y408L; N531G; E457G; E461Q; R462K; F464Y (enzyme)				82.1 nM	0.46	5.37
CFI-HSA variant Y408L; N531G; E457G; R462K; F464Y (enzyme)				45.8 nM	0.84	6.16
CFI-HSA variant Y408L; N531G; E461Q (enzyme)				51.5 nM	1.21	6.68
CFI-HSA variant Y408L; N531G; E461Q; R462K; F464Y (enzyme)				82.7 nM	0.92	5.97
CFI-HSA variant Y408L; N531G; K534Q (enzyme)	64.3 nM	1.03	5.13			
CFI-HSA variant Y408L; N531G; N422K (enzyme)	83.7 nM	1.94	3.78			
CFI-HSA variant Y408L; N531G; P535A (enzyme)				118 nM	1.02	5.22
